Experimental findings from article PMC9369135, “An FGFR1-Binding Peptide Modified Liposome for siRNA Delivery in Lung Cancer” (International Journal of Molecular Sciences, 2022) are described below.

Where no end group is shown, it is not given here.

Assay in all cases: MST; protein in a series of gradient dilutions, an equal amount of labeled CP7 peptide added; PBS with 0.05% Tween-20; glass capillary; room temperature; Monolith NT.115
Conditions in all cases: both partners purified

Assay [1] addresses T1, Human VEGFR1/FLT-1 protein (Fc tag) (human, UniProt P17948 27-758).
T1 construct: human VEGFR1/FLT-1, recombinant protein with Fc tag, Sino Biological 10136-H02H; Check the vendor's data sheet; source: bought: Sino Biological

The target in assay [2] is T2, Human FGFR1/CD331 protein (His tag) (human, UniProt P11362 22-376).
T2 construct: human FGFR1/CD331, recombinant protein with His tag, Sino Biological 10616-H08H; Check the vendor's data sheet; source: bought: Sino Biological
T2 sequence (looked up): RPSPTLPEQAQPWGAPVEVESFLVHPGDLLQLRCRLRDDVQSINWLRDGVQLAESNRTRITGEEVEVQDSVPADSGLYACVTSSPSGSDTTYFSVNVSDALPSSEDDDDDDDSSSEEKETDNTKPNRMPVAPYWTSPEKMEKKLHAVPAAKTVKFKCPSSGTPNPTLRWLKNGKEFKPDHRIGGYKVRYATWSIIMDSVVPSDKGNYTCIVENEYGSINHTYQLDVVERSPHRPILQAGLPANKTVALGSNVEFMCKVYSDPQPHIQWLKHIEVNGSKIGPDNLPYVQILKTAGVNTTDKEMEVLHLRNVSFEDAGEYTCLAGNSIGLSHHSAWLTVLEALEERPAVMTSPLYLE

Assay [3] has as its target T3, Human EGFR/HER1/ErbB1 protein (His tag) (human, UniProt P00533 25-645).
T3 construct: human EGFR/HER1/ErbB1, recombinant protein with His tag, Sino Biological 10001-H08H; Check the vendor's data sheet; source: bought: Sino Biological

T1 sequence (P17948 27-758): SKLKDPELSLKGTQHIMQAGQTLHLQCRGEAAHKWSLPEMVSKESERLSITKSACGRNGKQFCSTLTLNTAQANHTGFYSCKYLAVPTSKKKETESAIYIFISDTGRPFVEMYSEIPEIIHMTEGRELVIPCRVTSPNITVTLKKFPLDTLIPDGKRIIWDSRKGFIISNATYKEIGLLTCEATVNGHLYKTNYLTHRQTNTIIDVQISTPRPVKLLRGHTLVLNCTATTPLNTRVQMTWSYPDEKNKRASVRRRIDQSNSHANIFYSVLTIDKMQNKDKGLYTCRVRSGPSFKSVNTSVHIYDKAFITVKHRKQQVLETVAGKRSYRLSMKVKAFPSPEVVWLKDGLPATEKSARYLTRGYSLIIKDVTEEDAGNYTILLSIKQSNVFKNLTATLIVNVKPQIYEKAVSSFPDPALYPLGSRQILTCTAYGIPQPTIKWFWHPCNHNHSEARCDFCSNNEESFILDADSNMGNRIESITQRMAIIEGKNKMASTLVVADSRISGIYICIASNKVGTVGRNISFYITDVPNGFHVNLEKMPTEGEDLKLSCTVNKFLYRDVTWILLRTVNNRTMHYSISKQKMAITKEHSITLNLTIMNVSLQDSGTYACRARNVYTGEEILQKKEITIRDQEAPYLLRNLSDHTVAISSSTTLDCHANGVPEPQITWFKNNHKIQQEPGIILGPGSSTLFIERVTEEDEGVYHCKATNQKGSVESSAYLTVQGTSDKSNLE

B1: CP7 peptide (CIQPFYP) (peptide)
peptide: CIQPFYP
modifications: also: labelled, label not named
notes: novel peptide designed and screened by the authors' group; The methods of the MST say only 'the labeled peptide'; source: synthetic peptide: Shanghai GL Biochem Peptide Ltd
By Kd is commonly meant the free concentration of one partner at which half of the binding sites on the other are occupied at equilibrium, for simple one-to-one binding. Higher therefore signals a looser complex. For the molecule B1, the Kd came out at 0.0661 µM in assay [1], 0.0225 µM in assay [2] and 0.389 µM in assay [3].
